Results taken from patent publication US20250002587A1 (University of California, published 2025).
Where two headings read alike, the source gives them in different places.

How the values were obtained:
[1] = target: T1, cell surface-expressed human αvβ8 (human, UniProt P06756 31-1048; P26012 43-769); assay: cell-based or functional assay
[2] = target: T2, surface-expressed mouse αvβ8 on murine astrocytes (mouse, UniProt P43406 31-1044; Q0VBD0 22-767); assay: FACS titration on murine astrocytes
T2 construct: whole, on cells
Procedure: The affinities of ADWA16, ADWA11, and ADWA16-3.2 were measured on murine astrocytes by FACS. IgGs were incubated at various concentrations with the cells for 1 hr at RT in PBS. Cells were washed twice with PBS and binding was detected by incubation with fluorescently-labeled anti-human or anti-mouse secondary antibodies followed by two PBS wash steps and analysis by FACS.

[3] = target: T1, cell surface-expressed human αvβ8; assay: FACS on SNB19 human astrocytoma cells, fluorescent secondary antibody
Procedure: (§1) The affinities of ADWA16-3.2 and ADWA11 were measured on SNB19 human astrocytoma cells by FACS. IgGs were incubated at various concentrations with SNB19 cells for 1 hour at RT in PBS. Cells were washed twice with PBS and binding was detected by incubation with fluorescently-labeled anti-human secondary antibodies followed by two PBS wash steps and analysis by FACS. Binding affinities were calculated using curve-fitting software.

[4] = target: T1, cell surface-expressed human αvβ8; assay: FACS titration on SNB19 human astrocytoma cells; Example 13 FACS on SNB19 cells; detected with anti-human secondary, ADWA11 format not stated
Procedure: as §1

[5] = target: T1, cell surface-expressed human αvβ8; assay: FACS titration on SNB19 human astrocytoma cells
Procedure: (§2) The affinities of humanized, affinity-matured anti-αvβ8 IgGs (ADWA16-1, ADWA16-2, ADWA16-3, and ADWA16-4), a chimeric version of the parent ADWA16 murine IgG (ADWA16-chimera), and ADWA16 were measured on SNB19 human astrocytoma cells by FACS. IgGs were incubated at various concentrations with SNB19 cells for 1 hr at RT in PBS. Cells were washed twice with PBS and binding was detected by incubation with fluorescently-labeled anti-human (ADWA16-1, ADWA16-2, ADWA16-3, ADWA16-4, and ADWA16-chimera) or anti-mouse (ADWA16) secondary antibodies followed by two PBS wash steps and analysis by FACS. Binding affinities (shown in Table 3) were calculated using curve-fitting software.

[6] = target: T3, recombinant mouse αvβ8 (mouse, UniProt P43406 31-988; Q0VBD0 43-681, limits assumed); assay: bio-layer interferometry, IgG on anti-human Fab-CH1 tips, αvβ8 200 nM
T3 construct: Soluble recombinant heterodimer used as analyte at 200 nM in BLI
Procedure: (§3) The affinities of humanized, affinity-matured anti-αvβ8 IgGs (ADWA16-1, ADWA16-2, ADWA16-3, and ADWA16-4) and a chimeric version of the parent ADWA-16 murine IgG (ADWA16-chimera) were measured for recombinant human and mouse αvβ8 using bio-layer interferometry. Anti-human Fab-CH1 tips were loaded with humanized anti-αvβ8 IgGs (ADWA16-1, ADWA16-2, ADWA16-3, and ADWA16-4) or chimeric ADWA-16 followed by an association step with either human or mouse αvβ8 (200 nM) and a subsequent dissociation step. All steps were carried out in binding buffer (25 mM Tris, 0.15 M NaCl, 0.05% Tween-20, pH 7.5). Binding affinities (shown in Table 2) were calculated using curve-fitting software. FIGS. 3A-3E show association/dissociation curves for each antibody.

[7] = target: T4, recombinant human αvβ8 (human, UniProt P06756 31-992; P26012 43-684); assay: as above
T4 construct: Soluble recombinant heterodimer used as analyte at 200 nM in BLI
Procedure: as §3

[8] = target: T3, recombinant mouse αvβ8; assay: as above; remark: listed apart in the source
Procedure: (§4) The affinities of humanized, affinity-matured anti-αvβ8 IgGs (ADWA16-3 and ADWA16-3.2) and a chimeric version of the parent ADWA16 murine IgG (ADWA16-chimera) were measured for recombinant human and mouse αvβ8 using bio-layer interferometry. Anti-human Fab-CH1 tips were loaded with humanized anti-αvβ8 IgGs or chimeric ADWA16 followed by an association step with either human or mouse αvβ8 (200 nM) and a subsequent dissociation step. All steps were carried out in binding buffer (25 mM Tris, 0.15 M NaCl, 0.05% Tween-20, pH 7.5). Binding affinities (shown in Table 4) were calculated using curve-fitting software.

[9] = target: T4, recombinant human αvβ8; assay: as above; remark: listed apart in the source
Procedure: as §4

[10] = target: T5, cell surface expressed human αvβ3 (SW480 cells transfected to express αvβ3) (human, UniProt P06756 31-1048; P05106 27-788); assay: flow cytometry on transfected SW480 cells
T5 construct: whole, on cells
Procedure: (§5) The binding of ADWA16 and ADWA16-3.2 to cell surface expressed human αvβ3, αvβ5, αvβ6, and αvβ8 was tested by FACS. Flow cytometry was performed with either ADWA16-3 or ADWA16-3.2 with mock transfected SW480 cells (that express only αvβ5 integrin). SW480 cells were also transfected to express αvβ3 or αvβ6. SNB19 cells expressed αvβ3, αvβ5, and αvβ8.

[11] = target: T6, cell surface expressed human αvβ6 (SW480 cells transfected to express αvβ6) (human, UniProt P06756 31-1048; P18564 22-788); assay: flow cytometry on transfected SW480 cells
T6 construct: whole, on cells
Procedure: as §5

[12] = target: T1, cell surface-expressed human αvβ8; assay: FACS titration on SNB19 human astrocytoma cells; Example 7 FACS series on SNB19 cells, run beside ADWA16-3.2
Procedure: as §1, with “humanized, affinity-matured,” for “ADWA16-3.2”, “N-glycosylation site removed anti-αvβ8 IgGs (ADWA16-3 and ADWA16-3.2)” for “ADWA11”, “hr” for “hour”, “FACS.” for “FACS. Binding affinities were calculated using curve-fitting software.”

[13] = target: T7, cell surface expressed human αvβ5 (mock transfected SW480 cells) (human, UniProt P06756 31-1048; P18084 24-799); assay: flow cytometry on mock transfected SW480 cells (express only αvβ5); panel head 'A09 SW antihuman con'
T7 construct: whole, on cells
Procedure: as §5

[14] = target: T1, cell surface-expressed human αvβ8; assay: FACS titration on SNB19 human astrocytoma cells; Table 3 FACS series on SNB19 cells, run beside ADWA16, 16-chimera and 16-1 to 16-4
Procedure: as §2

[15] = target: T1, cell surface-expressed human αvβ8; assay: FACS titration on SNB19 human astrocytoma cells; Example 13 FACS series on SNB19 cells, run beside ADWA11
Procedure: as §1

[16] = target: T1, cell surface-expressed human αvβ8; assay: FACS titration on SNB19 human astrocytoma cells; Example 7 FACS series on SNB19 cells, run beside ADWA16-3
Procedure: as §1, with “humanized, affinity-matured,” for “ADWA16-3.2”, “N-glycosylation site removed anti-αvβ8 IgGs (ADWA16-3 and ADWA16-3.2)” for “ADWA11”, “hr” for “hour”, “FACS.” for “FACS. Binding affinities were calculated using curve-fitting software.”

T4 sequence (P06756 31-992 limits assumed, chain 1 of 2): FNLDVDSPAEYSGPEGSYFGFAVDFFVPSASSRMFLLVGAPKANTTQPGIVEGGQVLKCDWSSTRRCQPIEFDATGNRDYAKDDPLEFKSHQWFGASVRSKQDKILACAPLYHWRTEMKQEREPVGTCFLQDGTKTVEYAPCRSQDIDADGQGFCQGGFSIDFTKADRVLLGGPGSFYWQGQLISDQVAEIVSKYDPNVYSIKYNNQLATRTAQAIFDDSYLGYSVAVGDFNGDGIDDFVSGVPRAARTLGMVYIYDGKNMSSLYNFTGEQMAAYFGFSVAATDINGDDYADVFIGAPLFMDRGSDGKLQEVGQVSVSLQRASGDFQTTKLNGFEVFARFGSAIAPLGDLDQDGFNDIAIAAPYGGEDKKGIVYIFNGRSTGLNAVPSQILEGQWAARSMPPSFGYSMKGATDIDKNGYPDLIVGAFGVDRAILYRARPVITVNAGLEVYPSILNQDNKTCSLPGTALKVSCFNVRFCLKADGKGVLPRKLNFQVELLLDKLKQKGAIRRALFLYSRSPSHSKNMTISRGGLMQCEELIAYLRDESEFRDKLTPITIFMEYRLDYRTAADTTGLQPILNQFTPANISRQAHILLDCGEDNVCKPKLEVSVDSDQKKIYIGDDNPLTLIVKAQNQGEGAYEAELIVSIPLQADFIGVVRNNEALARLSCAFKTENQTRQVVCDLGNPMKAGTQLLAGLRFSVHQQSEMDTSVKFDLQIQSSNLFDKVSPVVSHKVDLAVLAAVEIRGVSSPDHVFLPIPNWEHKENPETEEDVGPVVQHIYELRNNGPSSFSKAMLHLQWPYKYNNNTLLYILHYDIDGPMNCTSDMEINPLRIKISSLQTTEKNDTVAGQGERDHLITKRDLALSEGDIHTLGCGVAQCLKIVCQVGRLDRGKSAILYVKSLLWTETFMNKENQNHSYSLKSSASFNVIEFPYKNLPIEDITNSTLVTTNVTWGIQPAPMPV
T4 sequence (P26012 43-684 limits assumed, chain 2 of 2): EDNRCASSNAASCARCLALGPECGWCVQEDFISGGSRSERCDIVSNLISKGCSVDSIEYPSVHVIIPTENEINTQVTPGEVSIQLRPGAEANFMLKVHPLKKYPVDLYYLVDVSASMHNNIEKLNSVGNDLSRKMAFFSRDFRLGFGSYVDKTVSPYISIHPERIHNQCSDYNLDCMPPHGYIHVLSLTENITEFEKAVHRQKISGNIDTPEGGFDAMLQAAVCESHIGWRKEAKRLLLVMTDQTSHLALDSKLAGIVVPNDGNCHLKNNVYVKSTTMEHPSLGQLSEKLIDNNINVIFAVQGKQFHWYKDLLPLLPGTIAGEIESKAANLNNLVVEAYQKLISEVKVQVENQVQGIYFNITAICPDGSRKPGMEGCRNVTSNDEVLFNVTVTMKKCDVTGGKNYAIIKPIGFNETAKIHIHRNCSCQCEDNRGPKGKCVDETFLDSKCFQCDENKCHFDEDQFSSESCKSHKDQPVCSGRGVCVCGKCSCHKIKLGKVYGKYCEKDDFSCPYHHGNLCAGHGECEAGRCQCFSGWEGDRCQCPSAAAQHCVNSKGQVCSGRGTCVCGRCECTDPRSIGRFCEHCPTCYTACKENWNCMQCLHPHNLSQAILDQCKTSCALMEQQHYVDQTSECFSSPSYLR
T1 sequence (P06756 31-1048, chain 1 of 2): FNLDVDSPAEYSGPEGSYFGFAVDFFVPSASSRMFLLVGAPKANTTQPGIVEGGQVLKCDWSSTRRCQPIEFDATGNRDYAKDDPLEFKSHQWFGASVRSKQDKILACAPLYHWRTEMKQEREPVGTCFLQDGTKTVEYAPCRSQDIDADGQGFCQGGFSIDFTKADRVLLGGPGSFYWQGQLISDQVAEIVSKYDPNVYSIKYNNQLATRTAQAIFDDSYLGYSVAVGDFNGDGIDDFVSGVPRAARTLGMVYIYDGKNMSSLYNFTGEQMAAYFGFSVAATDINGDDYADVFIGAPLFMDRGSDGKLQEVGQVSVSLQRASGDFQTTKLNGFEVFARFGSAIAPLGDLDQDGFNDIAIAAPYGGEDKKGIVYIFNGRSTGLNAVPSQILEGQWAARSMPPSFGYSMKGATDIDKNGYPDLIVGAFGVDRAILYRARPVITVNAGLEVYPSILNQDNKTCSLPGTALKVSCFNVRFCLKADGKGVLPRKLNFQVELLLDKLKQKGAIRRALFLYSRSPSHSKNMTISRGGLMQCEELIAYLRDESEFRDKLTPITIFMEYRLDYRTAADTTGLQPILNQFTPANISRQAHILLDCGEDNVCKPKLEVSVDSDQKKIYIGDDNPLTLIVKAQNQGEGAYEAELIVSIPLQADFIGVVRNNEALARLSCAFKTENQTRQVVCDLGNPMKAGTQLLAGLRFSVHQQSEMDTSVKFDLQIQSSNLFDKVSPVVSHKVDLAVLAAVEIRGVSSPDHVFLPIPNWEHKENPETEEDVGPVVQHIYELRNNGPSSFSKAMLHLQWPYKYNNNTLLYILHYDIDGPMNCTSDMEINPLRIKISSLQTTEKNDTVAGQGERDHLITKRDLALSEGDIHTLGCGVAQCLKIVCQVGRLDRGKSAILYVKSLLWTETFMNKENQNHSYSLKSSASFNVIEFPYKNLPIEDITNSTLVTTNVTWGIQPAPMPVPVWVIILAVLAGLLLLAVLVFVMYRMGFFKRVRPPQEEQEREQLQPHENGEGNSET
T1 sequence (P26012 43-769, chain 2 of 2): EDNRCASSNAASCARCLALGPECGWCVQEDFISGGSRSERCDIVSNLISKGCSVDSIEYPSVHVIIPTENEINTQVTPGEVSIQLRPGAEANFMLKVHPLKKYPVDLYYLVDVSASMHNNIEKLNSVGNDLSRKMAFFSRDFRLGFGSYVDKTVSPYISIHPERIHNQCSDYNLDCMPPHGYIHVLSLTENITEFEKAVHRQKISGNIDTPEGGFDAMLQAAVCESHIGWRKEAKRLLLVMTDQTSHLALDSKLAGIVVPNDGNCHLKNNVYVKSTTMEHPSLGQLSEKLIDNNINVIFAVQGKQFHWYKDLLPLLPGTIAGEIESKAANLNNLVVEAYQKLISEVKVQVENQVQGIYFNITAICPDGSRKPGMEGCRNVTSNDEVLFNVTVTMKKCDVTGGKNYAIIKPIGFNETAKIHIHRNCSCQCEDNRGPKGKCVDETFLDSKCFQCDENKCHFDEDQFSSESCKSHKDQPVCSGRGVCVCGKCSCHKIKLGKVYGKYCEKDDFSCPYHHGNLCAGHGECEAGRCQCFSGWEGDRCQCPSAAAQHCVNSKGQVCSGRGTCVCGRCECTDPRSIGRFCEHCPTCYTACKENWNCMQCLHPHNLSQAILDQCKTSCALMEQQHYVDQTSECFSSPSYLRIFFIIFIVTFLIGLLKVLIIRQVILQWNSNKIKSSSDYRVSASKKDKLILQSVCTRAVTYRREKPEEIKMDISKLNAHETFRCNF
T3 sequence (P43406 31-988 limits assumed, chain 1 of 2): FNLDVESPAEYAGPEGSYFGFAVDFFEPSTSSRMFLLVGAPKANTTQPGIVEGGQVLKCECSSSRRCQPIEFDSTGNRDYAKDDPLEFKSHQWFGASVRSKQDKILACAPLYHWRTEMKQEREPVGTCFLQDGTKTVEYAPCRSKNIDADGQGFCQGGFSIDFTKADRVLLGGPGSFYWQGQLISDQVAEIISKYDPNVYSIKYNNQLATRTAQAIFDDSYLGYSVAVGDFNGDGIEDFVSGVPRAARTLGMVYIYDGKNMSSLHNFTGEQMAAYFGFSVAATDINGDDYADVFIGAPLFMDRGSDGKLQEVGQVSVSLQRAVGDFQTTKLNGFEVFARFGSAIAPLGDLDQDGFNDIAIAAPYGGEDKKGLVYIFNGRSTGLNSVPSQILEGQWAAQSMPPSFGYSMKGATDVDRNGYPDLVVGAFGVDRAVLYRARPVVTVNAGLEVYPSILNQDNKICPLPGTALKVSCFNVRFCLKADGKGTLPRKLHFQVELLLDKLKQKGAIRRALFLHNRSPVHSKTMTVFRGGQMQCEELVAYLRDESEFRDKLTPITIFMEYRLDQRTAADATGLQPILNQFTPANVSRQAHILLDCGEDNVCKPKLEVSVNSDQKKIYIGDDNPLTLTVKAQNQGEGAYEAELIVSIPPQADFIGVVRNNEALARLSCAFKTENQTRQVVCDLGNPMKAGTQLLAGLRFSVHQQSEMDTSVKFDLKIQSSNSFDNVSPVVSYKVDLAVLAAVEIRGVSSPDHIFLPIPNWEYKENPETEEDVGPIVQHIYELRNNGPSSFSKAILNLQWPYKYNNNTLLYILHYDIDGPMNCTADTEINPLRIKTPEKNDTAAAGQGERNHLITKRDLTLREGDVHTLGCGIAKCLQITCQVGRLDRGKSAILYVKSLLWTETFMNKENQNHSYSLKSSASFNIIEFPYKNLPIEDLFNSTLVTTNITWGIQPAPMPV
T3 sequence (Q0VBD0 43-681 limits assumed, chain 2 of 2): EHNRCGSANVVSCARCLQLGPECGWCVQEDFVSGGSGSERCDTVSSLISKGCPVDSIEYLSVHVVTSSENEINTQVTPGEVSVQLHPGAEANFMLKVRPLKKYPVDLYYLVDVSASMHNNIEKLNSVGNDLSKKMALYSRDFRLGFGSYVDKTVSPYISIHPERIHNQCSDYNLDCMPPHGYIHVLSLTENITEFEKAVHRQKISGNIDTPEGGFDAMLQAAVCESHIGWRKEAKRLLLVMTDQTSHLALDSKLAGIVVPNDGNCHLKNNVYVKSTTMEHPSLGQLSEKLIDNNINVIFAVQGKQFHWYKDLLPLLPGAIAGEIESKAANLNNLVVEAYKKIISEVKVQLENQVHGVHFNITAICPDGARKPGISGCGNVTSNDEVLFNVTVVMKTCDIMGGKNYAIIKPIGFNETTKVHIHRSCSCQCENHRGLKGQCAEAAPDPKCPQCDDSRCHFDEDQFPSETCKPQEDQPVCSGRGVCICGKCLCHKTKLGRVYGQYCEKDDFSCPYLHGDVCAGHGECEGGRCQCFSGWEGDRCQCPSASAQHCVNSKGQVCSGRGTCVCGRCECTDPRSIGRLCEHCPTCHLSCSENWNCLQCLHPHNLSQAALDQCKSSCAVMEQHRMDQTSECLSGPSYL

IC50, inhibition of TGFβ activation (SNB19 / TMLC luciferase reporter co-culture) [1] [nM] | Kd [5] [nM] | Kd [6] [nM] | Kd [7] [nM] | Kd [8] [nM] | Kd [9] [nM] | Binder | also measured
0.364 | 0.417 | – | – | – | – | ADWA16 (antibody, V domains shown, Murine IgG, detected with anti-mouse secondary antibody; also called parent murine IgG; murine parent ADWA16) VH: QVQLQQSGAELAKPGASMKMSCKASGYTFSSYWIYWVKQRPGQGLEWIGYINPTTGYTEYNQKFRDKATLTADKSSNTAYMQLSSLTSEDSAVYYCATEGGNWEDYWGQGTTLTVSS VL: DIQMTQTTSSLSASLGDRVTISCRASQDISNYLNWYQQKPDGTVKLLIYYTSRLYSGVPSRFSGSGSGTDYSLTISNLEPKDIATYYCQQFSELPRTFGGGTKLEIK | IC50, inhibition of SNB19 cell adhesion to TGFβ1-LAP [1]: 1.1 nM; inhibition of adhesion of L229 cells to LAP (potency relative to ADWA11) [1]: ~10 fold
– | 0.614 | 8 | 0.86 | – | – | ADWA16-4 (antibody, V domains shown) VH: EVQLVESGGGLVQPGGSLRLSCAVSGYIFSSYWVYWVRQAPGKGLEWVGYINPTTGYTEYADSVKGRFTISRDNSKNTLYLQMNSLRAEDTAVYYCATEGGNWEDYWGQGTLVTVSS VL: DIQMTQSPSSLSASVGDRVTITCRASKDISNYINWYQQKPGKAPKLLIYYTSRLYGGVPSRFSGSGSGTDFTLTISSLQPEDFATYYCQQFSELPRTFGQGTKVEIK | –
0.58 | – | – | – | 1.06 | 0.688 | ADWA16-3.2 (antibody, V domains shown, also called humanized derivative of ADWA16) VH: EVQLVESGGGLVQPGGSLRLSCAVSGYIFSSYWVYWVRQAPGKGLEWVGYISPTTGYTVYADSVKGRFTISRDNSKNTLYLQMNSLRAEDTAVYYCATEGGNWEDYWGQGTLVTVSS VL: DIQMTQSPSSLSASVGDRVTITCRASQDISNYINWYQQKPGKAPKLLIYYTSRLYGGVPSRFSGSGSGTDFTLTISSLQPEDFATYYCQQFSELPRTFGQGTKVEIK | IC50, inhibition of SNB19 cell adhesion to TGFb1 LAP [1]: 0.65 nM; IC50, inhibition of SNB19 cell adhesion to TGFβ1-LAP [1]: 2.1 nM; Kd [2]: 1.1 nM; binding result [10]: no binding; binding result [11]: no binding; EC50 (read off the curve) [3]: ~0.4 nM; Kd [15]: 0.392 nM; Kd [16]: 0.512 nM; binding result [13]: no binding

Continued, binder first:

Binder | IC50, inhibition of TGFβ activation (SNB19 / TMLC luciferase reporter co-culture) [1] [nM] | Kd [5] [nM] | Kd [6] [nM] | Kd [7] [nM] | Kd [8] [nM] | Kd [9] [nM] | also measured
ADWA11 (antibody, V domains shown, IgG; also called ADWA1l) VH: EVQLQQSGAELVRPGAFVKLSCKASGFNIKDYYMNWVLQRPEQGLEWIGWIDPDNGNTIYDPKFQGKASITADTSSNTAYLQLSSLTSEDTAVYYCARRLLMDYWGQGTSVTVSS VL: DIVMTQAAPSVPVTPGESVSISCRSTKSLLHFNGNTYLFWFLQRPGQSPQRLIYYMSNLASGVPDRFSGRGSGTDFTLRISRVEAEDVGVYYCMQSLEYPFTFGTGTKLEIK | – | – | – | – | – | – | IC50, inhibition of SNB19 cell adhesion to TGFb1 LAP [1]: 1.44 nM; Kd [2]: 5.6 nM; EC50 (read off the curve) [3]: ~1 nM; Kd [4]: 1.04 nM
ADWA16-chimera (antibody, V domains shown, It was captured on anti-human Fab-CH1 tips and detected with anti-human secondary, so it has human constant regions; also called chimeric ADWA-16; chimeric version of the parent ADWA16 murine IgG) VH: QVQLQQSGAELAKPGASMKMSCKASGYTFSSYWIYWVKQRPGQGLEWIGYINPTTGYTEYNQKFRDKATLTADKSSNTAYMQLSSLTSEDSAVYYCATEGGNWEDYWGQGTTLTVSS VL: DIQMTQTTSSLSASLGDRVTISCRASQDISNYLNWYQQKPDGTVKLLIYYTSRLYSGVPSRFSGSGSGTDYSLTISNLEPKDIATYYCQQFSELPRTFGGGTKLEIK | – | 0.302 | 21 | 0.95 | 21 | 0.95 | –
ADWA16-3 (antibody, V domains shown) VH: EVQLVESGGGLVQPGGSLRLSCAVSGYIFSSYWVYWVRQAPGKGLEWVGYINPTTGYTEYADSVKGRFTISRDNSKNTLYLQMNSLRAEDTAVYYCATEGGNWEDYWGQGTLVTVSS VL: DIQMTQSPSSLSASVGDRVTITCRASQDISNYINWYQQKPGKAPKLLIYYTSRLYGGVPSRFSGSGSGTDFTLTISSLQPEDFATYYCQQFSELPRTFGQGTKVEIK | 1.36 | – | 5 | 0.83 | 3.15 | 1.16 | binding result [10]: no binding; binding result [11]: no binding; Kd [12]: 0.83 nM; binding result [13]: no binding; Kd [14]: 0.389 nM
ADWA16-2 (antibody, V domains shown) VH: EVQLVESGGGLVQPGGSLRLSCAVSGYIFSSYWVYWVRQAPGKGLEWVGYINPTTGYTEYADSVKGRFTISRDNSKNTLYLQMNSLRAEDTAVYYCATEGGNWEDYWGQGTLVTVSS VL: DIQMTQSPSSLSASVGDRVTITCRASKDISNYLNWYQQKPGKAPKLLIYYTSRLYSGVPSRFSGSGSGTDFTLTISSLQPEDFATYYCQQFSELPRTFGQGTKVEIK | – | 0.498 | 8.5 | 2 | – | – | –
ADWA16-1 (antibody, V domains shown) VH: EVQLVESGGGLVQPGGSLRLSCAVSGYIFSSYWVYWVRQAPGKGLEWVGYINPTTGYTEYADSVKGRFTISRDNSKNTLYLQMNSLRAEDTAVYYCATEGGNWEDYWGQGTLVTVSS VL: DIQMTQSPSSLSASVGDRVTITCRASQDISNYINWYQQKPGKAPKLLIYYTSRLYSGVPSRFSGSGSGTDFTLTISSLQPEDFATYYCQQFSELPRTFGQGTKVEIK | – | 0.459 | 4.8 | 0.73 | – | – | –
